The target of assay [1] is PDZ domain of the human protein tyrosine phosphatase non-receptor type 3 (PTPN3-PDZ) (human) (UniProt P26045). Nature of the assay: AUC; sedimentation velocity, PTPN3-PDZ alone at 25 μM, 20 °C, 42000 rpm; monomer and dimer peaks.
For another assay, the target named is p38γ PBM (Homo sapiens). The note with it: cited from earlier work.

Chain of PTPN4 PDZ (P29074 514-592): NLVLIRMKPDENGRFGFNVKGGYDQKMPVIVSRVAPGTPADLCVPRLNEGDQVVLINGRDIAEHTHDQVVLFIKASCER

Broadly, the stoichiometry N is a count of units in the complex or per binding partner. “PDZ domain of the human protein tyrosine phosphatase non-receptor type 3 (PTPN3-PDZ) (from UniProt P26045-1 504-913) (domain or fragment)” displayed a stoichiometry N in assay [1] of 2.

By Kd is commonly meant the free concentration of one partner at which half of the binding sites on the other are occupied at equilibrium, for simple one-to-one binding. Turning to PTPN4 PDZ (from UniProt P29074), in the assay with p38γ PBM (Homo sapiens), the Kd was 1600 nM.

The values are drawn from paper PMC6520365, “Structural and functional characterization of the PDZ domain of the human phosphatase PTPN3 and its interaction with the human papillomavirus E6 oncoprotein” (Scientific Reports, 2019).
